Reference: paper PMC4641155 (Molecular Imaging and Biology, 2015)
“And” between values parts separate entries of the source, which are not always exact repeats. Equal values may be shown once.

How the values were obtained:
[1] = In vivo plasma metabolite analysis by radio-HPLC; set-up: species or system CD1−/− nude mice; conditions: mouse plasma 4 and 24 h p.i., 37 MBq purified tracer i.v., acetonitrile deproteination, radio-RP-HPLC with γ-counted fractions; n = 3 per time point
Protocol: In vivo metabolite analysis
Four and 24 h p.i. (n=3 for each […]
time point) mixed blood was drawn by cardiac puncture, and the mice were euthanized by cervical dislocation. The blood was collected in EDTA-coated tubes and the plasma fraction was obtained by centrifugation (4000 g for 7 min). The plasma (200 µl) was mixed with an equal amount of cold acetonitrile to enable sample deproteination and counted for radioactivity using an automatic γ-counter. After vortexing and centrifuging for 4 min at 4000 g, the supernatant was separated from the pellet and both fractions were γ-counted to calculate the amount of radioactivity extracted in acetonitrile. To study radiometabolite formation, 100 µl of the supernatant were analyzed by RP-HPLC using the method described before. Eluate fractions of 0.5 min were collected and counted for radioactivity in the γ-counter.
Adult normal CD1-/- nude mice were used to examine the metabolic stability of […]
According to the radio-HPLC analysis of the plasma samples, the majority of the injected radiotracer remains unchanged after 4 and 24 h p.i. (Figs. 1b and c, respectively).
One minor polar impurity was detected eluting at 3 min. As it was also visible in the reference […]
Radiometabolites eluting with a longer retention time (18.5 – 30 min) could also be detected.

[2] = test system: COLO205 tumors; test: In vivo tumor uptake by μSPECT-CT in COLO205 tumor-bearing mice; set-up: species or system nude mice; conditions: for mean tumor uptake: μSPECT 4 h p.i., 37 MBq i.v., mean ± SEM, n = 6 tumors
Protocol: (§1) Irinotecan was administered by intra-peritoneal (i.p.) injection (80 mg/kg) three times in 1 week every other day (n = 3).

[3] = Human residence time estimates scaled from mouse μSPECT time-activity curves; type: in vivo, human (extrapolated from mouse); conditions: scaled from mouse μSPECT TACs, n = 3 non-purified, n = 6 purified
Description: (§2) Volumes of interest (VOIs) were manually drawn on the μSPECT-CT images using PMOD v3.3 (PMOD Technologies, Switzerland) to delineate the regions with distinct SPECT time-activity pattern: heart, liver, kidney, and urinary bladder, as well as whole-body. The average organ activity per volume was obtained from the co-registered μSPECT images and the non-decay corrected time activity curves (TACs) were extracted for each target organ. In order to relate the scanner units (counts/pixel) to radioactivity concentration (kilobecquerel per cubic centimeter), a scanner calibration factor was estimated by scanning a syringe with a known concentration of Tc-99m. TACs for each organ, as well as the TACs representing the activity in the remainder of the body, were fitted by a single exponential decaying function, which was then integrated to obtain the total number of disintegrations (residence time) within these regions. In order to predict human dosimetry using animal data, interspecies extrapolation is necessary. Thus, the residence times (R) were scaled to human values according to the following formula [21]: R/gorganmouse⋅kgTBweightmouse⋅gorgan/kgTBweighthuman=Rhuman
(§3) The human organ and body weight values from the standard adult male phantom taken into account are implemented in the internal dosimetry software (OLINDA/EXM v1.1) and are assumed to be constant across individuals. The body weight and organ masses for the individual mice were obtained post-mortem. For the bladder model, the fraction leaving the body via the urinary excretion system (f) and the biological half-life of the excretion (t1/2) were estimated by fitting a first-order linear system to the sum of activity in the bladder and the activity that had been excreted (calculated as total injected activity minus total body activity): y=f1−expln2/t1/2t

[4] = Projected human organ absorbed doses and effective dose (OLINDA/EXM); type: in vivo, human (extrapolated from mouse); conditions: OLINDA/EXM v1.1, adult male model, 2-h voiding, from mouse data
Description: as §2, §3
Projected human absorbed doses to various organs and the effective doses (ED) were then computed using the aforementioned dosimetry software (weighting factors from International Commission on Radiological Protection 60), with the human residence times as input, using the standard adult male model and the dynamic voiding bladder model (2-h voiding interval).

[5] = Bladder model fit of urinary excretion; type: in vivo, CD1−/− nude female mice; conditions: first-order fit of bladder plus excreted activity
Description: as §3

[6] = test system: COLO205 tumors; test: Ex vivo tumor uptake by γ-counting in COLO205 tumor-bearing mice; set-up: species or system nude mice; conditions: mean ± SEM
Protocol: as §1

In the case of `CC(C)[C@@H]1NC(=O)[C@H](Cc2ccccc2)NC(=O)[C@@H]2NC(=O)[C@H](Cc3ccccc3)NC(=O)[C@@H]3CCCN3C(=O)CNC(=O)[C@H](Cc3ccccc3)NC(=O)[C@@H]3CNCCCC[C@@H](C(=O)O)NC(=O)[C@@H]4NC(=O)[C@H](CC(N)=O)NC(=O)CNC(=O)[C@H]([C@@H](O)C(=O)O)NC(=O)[C@H](CSC[C@@H](NC(=O)[C@H](CCC(N)=O)NC(=O)[C@H](CCCCNC(=O)c5ccc(NN)nc5)NC(=O)[C@@H](N)CS[C@H]4C)C(=O)N[C@@H](CS[C@H]2C)C(=O)N3)NC1=O` [purified [^99mTc]duramycin] [metal not drawn], the “in vivo plasma (metabolic) stability” value [1] is reported as “unchanged”, the “tumor-to-blood uptake ratio, irinotecan-treated over vehicle-treated mice” value ([2]; 4 h p.i.) is reported as 6 fold and the “tumor-to-muscle uptake ratio, irinotecan-treated over vehicle-treated mice” value ([2]; 4 h p.i.) is reported as 2 fold. The mean tumor uptake ([2]; irinotecan-treated group, 24 h after last dose) was 148.50 ± 25.42 %I.D./g/kg, the mean tumor uptake ([2]; vehicle-treated group) was 40.58 ± 2.81 %I.D./g/kg and the “Mean human residence time, heart contents” value [3] was 0.027 h. For the same molecule, the “Mean human residence time, kidneys” value [3] was 0.0549 h, the “Mean human residence time, liver” value [3] was 0.075 h and the “Mean human residence time, remaining body” value [3] was 2.54 h. The “Mean human residence time, urinary bladder contents” value [3] was 6.43 × 10 ^−1 h, the “Mean human absorbed dose, total body” value [4] was 1.62 × 10^−3 mGy/MBq and the “Mean human organ absorbed dose, LLI wall” value [4] was 2.97 × 10^−3 mGy/MBq. For the same molecule, the “Mean human organ absorbed dose, ULI wall” value [4] was 2.03 × 10^−3 mGy/MBq, the “Mean human organ absorbed dose, adrenals” value [4] was 1.74 × 10^−3 mGy/MBq and the “Mean human organ absorbed dose, brain” value [4] was 1.14 × 10^−3 mGy/MBq. The “Mean human organ absorbed dose, breasts” value [4] was 9.59 × 10^−4 mGy/MBq, the “Mean human organ absorbed dose, gallbladder wall” value [4] was 1.84 × 10^−3 mGy/MBq and the “Mean human organ absorbed dose, heart wall” value [4] was 1.91 × 10^−3 mGy/MBq. The “Mean human organ absorbed dose, kidneys” value [4] was 3.63 × 10^−3 mGy/MBq, the “Mean human organ absorbed dose, liver” value [4] was 1.64 × 10^−3 mGy/MBq and the “Mean human organ absorbed dose, lungs” value [4] was 1.36 × 10^−3 mGy/MBq. The “Mean human organ absorbed dose, muscle” value [4] was 1.55 × 10^−3 mGy/MBq, the “Mean human organ absorbed dose, osteogenic cells” value [4] was 3.92 × 10^−3 mGy/MBq and the “Mean human organ absorbed dose, ovaries” value [4] was 2.96 × 10^−3 mGy/MBq. For the same molecule, the “Mean human organ absorbed dose, pancreas” value [4] was 1.82 × 10^−3 mGy/MBq, the “Mean human organ absorbed dose, red marrow” value [4] was 1.48 × 10^−3 mGy/MBq and the “Mean human organ absorbed dose, skin” value [4] was 9.56 × 10^−4 mGy/MBq. For the same molecule, the “Mean human organ absorbed dose, small intestine” value [4] was 2.22 × 10^−3 mGy/MBq, the “Mean human organ absorbed dose, spleen” value [4] was 1.59 × 10^−3 mGy/MBq and the “Mean human organ absorbed dose, stomach wall” value [4] was 1.59 × 10^−3 mGy/MBq. The “Mean human organ absorbed dose, testes” value [4] was 2.07 × 10^−3 mGy/MBq, the “Mean human organ absorbed dose, thymus” value [4] was 1.39 × 10^−3 mGy/MBq and the “Mean human organ absorbed dose, thyroid” value [4] was 1.38 × 10^−3 mGy/MBq. For the same molecule, the “Mean human organ absorbed dose, urinary bladder wall” value [4] was 2.70 × 10^−2 ± 3.05 × 10^−3 mGy/MBq and 2.70 × 10 ^−2 mGy/MBq, the “Mean human organ absorbed dose, uterus” value [4] was 4.57 × 10^−3 ± 3.42 × 10^−4 mGy/MBq and 4.57 × 10 ^−3 mGy/MBq and the “f, mean fraction leaving the body via the urinary excretion system” value [5] was 0.697. For the same molecule, the “t 1/2, mean biological half-life of the excretion” value [5] was 2.151 h, the “tumor uptake by γ-counting” value ([6]; control (vehicle) tumors) was 0.74 ± 0.04 %I.D./g and the “tumor uptake by γ-counting” value ([6]; irinotecan-treated tumors) was 1.65 ± 0.13 %I.D./g.
